According to publication PMC8861115, “Characterization and structural analyses of a novel glycosyltransferase acting on the β-1,2-glucosidic linkages” (The Journal of Biological Chemistry, 2022):

Assays:
Conditions in all cases: acceptor, donor Sop2 fixed 1 mM, pH 5.0, 37 °C
purified protein [1] = substrate: O=[N+]([O-])c1ccc(O[C@H]2O[C@H](CO)[C@@H](O)[C@H](O)[C@H]2O)cc1; test: purified protein
purified protein [2] = substrate: O=[N+]([O-])c1ccc(O[C@@H]2O[C@H](CO)[C@@H](O)[C@H](O)[C@H]2O)cc1; test: purified protein
[3] = substrate: CCO[C@H]1O[C@H](CO)[C@@H](O)[C@H](O)[C@H]1O; test: hexokinase/G6PDH thio-NAD+ coupled glucose release; format: biochemical, Ignavibacterium album
From the text: (§1) hexokinase/G6PDH thio-NAD+ coupled glucose release on IaSGT (IALB_1185)

[4] = substrate: OC[C@H]1O[C@H](Oc2ccc3ccccc3c2)[C@H](O)[C@@H](O)[C@@H]1O; test: hexokinase/G6PDH thio-NAD+ coupled glucose release; format: biochemical, Ignavibacterium album
From the text: as §1

[5] = substrate: OC[C@H]1O[C@H](Oc2ccccc2)[C@H](O)[C@@H](O)[C@@H]1O; test: hexokinase/G6PDH thio-NAD+ coupled glucose release; format: biochemical, Ignavibacterium album
From the text: as §1

[6] = substrate: OCc1ccccc1O[C@@H]1O[C@H](CO)[C@@H](O)[C@H](O)[C@H]1O; test: hexokinase/G6PDH thio-NAD+ coupled glucose release; format: biochemical, Ignavibacterium album
From the text: as §1

[7] = substrate: OC[C@H]1O[C@@H](Oc2ccc(O)cc2)[C@H](O)[C@@H](O)[C@@H]1O; test: hexokinase/G6PDH thio-NAD+ coupled glucose release; format: biochemical, Ignavibacterium album
From the text: as §1

[8] = substrate: OC[C@H]1O[C@H](Oc2ccc(O)cc2)[C@H](O)[C@@H](O)[C@@H]1O; test: hexokinase/G6PDH thio-NAD+ coupled glucose release; format: biochemical, Ignavibacterium album
From the text: as §1

[9] = substrate: OCc1ccc(O[C@@H]2O[C@H](CO)[C@@H](O)[C@H](O)[C@H]2O)cc1; test: hexokinase/G6PDH thio-NAD+ coupled glucose release; format: biochemical, Ignavibacterium album
From the text: as §1

[10] = substrate: CO[C@H]1O[C@H](CO)[C@@H](O)[C@H](O)[C@H]1O; test: hexokinase/G6PDH thio-NAD+ coupled glucose release; format: biochemical, Ignavibacterium album
From the text: as §1

[11] = substrate: O=c1ccc2cc(O[C@@H]3O[C@H](CO)[C@@H](O)[C@H](O)[C@H]3O)c(O)cc2o1; test: hexokinase/G6PDH thio-NAD+ coupled glucose release; format: biochemical, Ignavibacterium album
From the text: as §1

[12] = substrate: CO[C@@H]1O[C@H](CO)[C@@H](O)[C@H](O)[C@H]1O; test: hexokinase/G6PDH thio-NAD+ coupled glucose release; format: biochemical, Ignavibacterium album
From the text: as §1

[13] = substrate: OC[C@H]1O[C@H](OCc2ccccc2)[C@H](O)[C@@H](O)[C@@H]1O; test: hexokinase/G6PDH thio-NAD+ coupled glucose release; format: biochemical, Ignavibacterium album
From the text: as §1

B1: IaSGT (IALB_1185) (Ignavibacterium album JCM 16511) (protein)
chain: MKPHNSEKYFVKNGQPHFLISGEVHYFRINPKLWRNHLQLLKQTGADTVSTYIPWDWHEIEEDDFDFEGKTHPARNLIRFIKLCKEENLDLIVKPGPYILAEYENQGLPSWLLKKLSKNAFALDENGNVISPDLVSYLSDEFLEYTFKWYDKVMPIISKHQKEHYGPITMMQLCNEIGVFQWLSGKSDYNPKVINLYKEFIIQRYKTIEKLNSVYSTNYNSFDDLKAPSGKIKLRSDYCAYFDFHLFFREYYNKYISILKNKIRSFGINIKLTHNIPGWIYGNASELPMLISTYSEIMKNHPDIIFGLDHIPEFVSFRNAHSDLACNKILEAMQPEAPVWAAEFQAGTREHHVKAYAKDLETFYIASLAHGIKGFNYYMFSQGINPEGKGFYGKTFYFQTALDAASNKLALYDSIKKVNRFIRKEQKDLLRTNVNSEICVGFYKPYFFTELISSQLLKEKKLNVEELGLYIDPRFLREEILFNGLLRGLQTLNYNYDVVDLENCDLKSLTAYKQLWITSAEFMDAETQNLLSEFVLNGGNLILYPAVPTLDNYLNRCEILKNNFGIEFITKDSSHKVSAFGIEDVFTAFSKKQIYNDTNSKPIAFTQENEICGIRKKIGKGELTILGFAFGYTSDEHLELIDKLVKLNKIKRELFVSDKDIQFVVRENNKSRYIFFLNYHNERKTFNYRKSSELKKKKSEEISIAPFSYKVIKENK
notes: full length (no N-terminal signal peptide), his6-tag fusion from pET30a(+) NdeI/XhoI, E. coli BL21(DE3); homodimer
Km (purified protein [1]): 130 ± 20 µM
kcat (purified protein [1]): 5 s⁻¹
kcat/Km (purified protein [1]): 39000 M⁻¹ s⁻¹
Km (purified protein [2]): 40 ± 4 µM
kcat (purified protein [2]): 0.46 s⁻¹
kcat/Km (purified protein [2]): 12000 M⁻¹ s⁻¹
Km [3]: 44 ± 5 µM
kcat [3]: 0.55 ± 0.02 s⁻¹
kcat/Km [3]: 13000 ± 1000 M⁻¹ s⁻¹
Km [4]: 150 ± 30 µM
kcat [4]: 3.9 ± 0.3 s⁻¹
kcat/Km [4]: 26000 ± 3000 M⁻¹ s⁻¹
Km [5]: 220 ± 30 µM
kcat [5]: 1.8 ± 0.2 s⁻¹
kcat/Km [5]: 8100 ± 600 M⁻¹ s⁻¹
Km [6]: 21 ± 3 µM
kcat [6]: 0.88 ± 0.03 s⁻¹
kcat/Km [6]: 43000 ± 1000 M⁻¹ s⁻¹
Km [7]: 26 ± 3 µM
kcat [7]: 1.4 ± 0.1 s⁻¹
kcat/Km [7]: 55000 ± 5000 M⁻¹ s⁻¹
Km [8]: 380 ± 50 µM
kcat [8]: 8.7 ± 0.6 s⁻¹
kcat/Km [8]: 23000 ± 2000 M⁻¹ s⁻¹
Km [9]: 42 ± 4 µM
kcat [9]: 0.49 ± 0.02 s⁻¹
kcat/Km [9]: 12000 ± 1000 M⁻¹ s⁻¹
Km [10]: 200 ± 30 µM
kcat [10]: 1 ± 0.1 s⁻¹
kcat/Km [10]: 4900 ± 400 M⁻¹ s⁻¹
Km [11]: 45 ± 6 µM
kcat [11]: 1.3 ± 0.1 s⁻¹
kcat/Km [11]: 29000 ± 1000 M⁻¹ s⁻¹
Km [12]: 130 ± 30 µM
kcat [12]: 1.9 ± 0.2 s⁻¹
kcat/Km [12]: 14000 ± 2000 M⁻¹ s⁻¹
Km [13]: 96 ± 11 µM
kcat [13]: 0.86 ± 0.05 s⁻¹
kcat/Km [13]: 9000 ± 700 M⁻¹ s⁻¹
